Test results taken from patent publication US8221773B2, “Hydrogels and uses thereof” (University of Delaware, priority 2004, dated 2012).
Where no end group is shown, it is not given here. [ ]: non-standard residue; d: D form.

Key:
[1] = cited from earlier work
[2] = CD spectroscopy of peptide folding (random coil vs β-sheet); format: physicochemical; conditions: 150 μM solution, pH 9.0, 125 mM Borate, 10 mM NaCl
Description: Time-dependent circular dichroism (CD) studies support a hydrogelation mechanism consistent with intramolecular hairpin formation followed by self-assembly. […] At temperatures >25° C. the folding and self-assembly of MAX1 occurs on the order of seconds. […] This behavior is consistent across all spectro- and microscopic methods used to interrogate MAX1. For example, at micromolar concentrations used for the CD studies shown in FIGS. 4A and 4B, self-assembly takes hours at 20° C. At millimolar concentrations, such as those used in the rheological studies described below, self-assembly leading to hydrogel takes minutes at 20° C.
The reversibility of the folding and self-assembly process was investigated by measuring θ216 as a function of pH and time as shown in FIG. 4C. CD of a stirred solution of MAX1 at pH 5.5 indicates random coil conformation. Adjusting the pH to 9.0 by the addition of NaOH results in β-sheet formation as expected. However, subsequent adjustment of the pH to 6.0 results in complete loss of sheet signal and full recovery of random coil signal. […] Again, this reversible behavior is not observed in hydrogels formed from amyloid/prion-like fibrils.
In some embodiments of the invention, various functionalities (e.g., cell adhesion epitopes, receptor agonists, receptor antagonists, ligands, small molecules, etc) may be incorporated into the hairpin hydrogel scaffold. One way to accomplish this would be to functionalize one or more amino acid side chains of the peptide. […] In some embodiments, the moieties to be incorporated at a particular side chain may be much larger (e.g. RGD-based motifs) and may contain charged residues. MAX5 (VKVKVKVKV^DPPTKVKEKVKV-NH2) was prepared to investigate the possibility of incorporating a charged residue on the hydrophobic face of MAX1. The sequence contains a glutamic acid residue at position 16 which is negatively charged at basic pH where MAX1 normally folds and assembles. […] However, alterations to the hydrophilic face of MAX1 are well tolerated. Sequences in which one or two lysine residues are replaced with other residues such as cysteine, serine, and glutamic acid are capable of folding and self-assembly into rigid hydrogels (data not shown).
The peptides described above contain identical turn sequences, namely (-V^DPPT-). This sequence has a strong propensity to form a type II′ turn and therefore helps to drive intramolecular folding. Since intramolecular folding must occur prior to self-assembly, alterations to this turn sequence that inhibit turn structure formation can be used to modulate intramolecular folding and self-assembly leading to hydrogelation. MAX9 was prepared to probe the importance of the turn region (VKVKVKVKV^LPPTKVKVKVKV-NH2). […]

[3] = Temperature dependent CD: temperature at which folding and self-assembly is triggered (Tgel); format: physicochemical; conditions: for temperature at which folding and consequent self-assembly is triggered (Tgel): 150 μM peptide, 125 mM Borate, 10 mM NaCl, pH 9, CD ellipticity at 218 nm
Description: At low temperature MAX1 is unfolded (and unassembled). At high temperature MAX1 folds into beta-sheet (and consequently self-assembles into a hydrogel). […] The relative hydrophobicity is MAX1>MAX2>MAX3 due to the isostructural but less hydrophobic substitutions of threonine for valine at the underlined positions. The most hydrophobic folds at the lowest temperature while the least hydrophobic folds at the highest temperature. This is a direct manifestations of the molecular parameter manipulations described in FIG. 2. Also shown are the calculated free energy of transfer of each corresponding unfolded peptide having an overall +8 charge state from octanol into water at 25° C. MAX1, the most hydrophobic has the highest free energy of transfer equal to 7.60 kcal/mol. MAX2 has a calculated transfer free energy of 6.88 kcal/mol, while the least hydrophobic MAX3 has the lowest energy of transfer of 6.45 kcal/mol.
This allows the characteristics of the hydrogels of the invention to be varied by adjusting these parameters. […] It is well known that water is better able to solvate hydrophobic groups at low temperatures. This phenomenon has been used to describe the cold denaturation of proteins where some proteins unfold at low temperatures, exposing their hydrophobic interiors to aqueous solvent. A 150 μM aqueous solution of MAX1 unfolds when cooled below room temperature. The CD spectrum at 5° C. is consistent with random coil conformation, FIG. 9A. However, warming the solution to 40° C. results in a spectra consistent with β-sheet structure. […] In fact, previous studies involving the pH induced folding and self-assembly of MAX1 were performed at 20° C. At this temperature, folding and self-assembly are slow enough to be conveniently monitored. At higher temperatures, folding and self: assembly leading to hydrogelation is fast (instantaneous to seconds depending on concentration). If the formation of hydrophobic interactions affects the folding and self-assembly process, then altering the hydrophobic content of MAX1 should affect the temperature at which folding is triggered. […] MAX2 is identical to MAX1 except that one valine residue has been replaced with the isostructural, but less hydrophobic residue, threonine. In MAX3, two valines are replaced with threonine residues. The resulting peptides vary in their hydrophobicity as evident by comparing calculated free energies of transfer from octanol into water, FIG. 9. […] Thus, the formation of hydrophobic contacts influences folding and self-assembly. […] Thus, the characteristics of the hydrogels of the invention can be varied by adjusting the amino acid residues of the peptides used to form the hydrogels to increase or decrease the hydrophobicity of the amino acid residues used.
There are reports of large polymers that are thermally responsive. The present invention provides the first system that employs temperature triggered folding to induce self-assembly. […] Heating the solution to 80° C. results in a spectra consistent with β-sheet structure. […] The temperatures used in both CD and rheology bracket the temperature (Tgel=60° C., FIG. 9) at which folding and consequent self-assembly is triggered. […] For example, free flowing peptide solutions could be prepared at room temperature and administered in vivo where the temperature of the body could induce gelation. […]

[4] = Hydrogelation by folding and self-assembly; format: physicochemical; conditions: for reversibility of thermally induced hydrogelation: pH 9, heating/cooling cycles
Description: The ability of MAX1 to undergo hydrogelation is dependent upon its unimolecular folded state. Under basic aqueous solution conditions (pH 9.0, 125 mM Borate, 10 mM NaCl), where some of the lysine side chains of MAX1 are neutral, this peptide intramolecularly folds into an amphiphilic β-hairpin (folding can also be triggered at pH 7 under physiological conditions). One face of the hairpin is lined with hydrophobic valine residues while the other face is lined with hydrophilic lysine residues, FIGS. 2 and 3A. After intramolecular folding, subsequent self-assembly of hairpins is facilitated (a) laterally via H-bond formation and attractive hydrophobic interactions between distinct hairpins as well as (b) facially by hydrophobic association of the valine-rich faces of the folded peptide resulting in hydrogelation, FIG. 3B. Since the charged state of the lysine residues are controlled by pH, the unimolecular folding is reversible. Lowering the pH below the intrinsic pKa of the lysine side chains results in intra-strand charge repulsion from neighboring lysines and subsequent unfolding of individual hairpins, ultimately dissolving the self-assembled hydrogel structure. This reversible behavior is unique when compared to β-sheet-rich hydrogels prepared from classical fibril-based designs. In these systems, the self-assembly process is irreversible.
There are reports of large polymers that are thermally responsive. The present invention provides the first system that employs temperature triggered folding to induce self-assembly. […] Heating the solution to 80° C. results in a spectra consistent with β-sheet structure. […] The temperatures used in both CD and rheology bracket the temperature (Tgel=60° C., FIG. 9) at which folding and consequent self-assembly is triggered. […] For example, free flowing peptide solutions could be prepared at room temperature and administered in vivo where the temperature of the body could induce gelation. Some Poly-N-isopropylacrylamide polymers have been engineered have been engineered to undergo such transitions ultimately affording extracellular-like scaffolds for tissue regeneration. The above studies support the idea that the formation of hydrophobic interactions are important. MAX1-3 all contain valines and threonines at hydrogen bonded positions. At these positions, their side chains prefer to adopt a trans rotamer. As a result, hydrophobic residues that oppose each other across the hairpin point their side chains in opposite directions thus making the formation of intramolecular hydrophobic interactions across the strands difficult, FIG. 11A. However, these side chains are nicely positioned to interact laterally with the hydrophobic side chains of neighboring hairpins in the self-assembled state, FIG. 11B. Forming these lateral hydrophobic interactions should favor self-assembly. […] In MAX4, opposing valine side chains are expected to point towards each other, FIG. 11B. Thus, the valine side chains of MAX4 are less likely than those in MAX1 to form lateral intermolecular hydrophobic interactions. If the formation of lateral intermolecular hydrophobic interactions is of more importance for self-assembly than intramolecular hydrophobic contacts, then the rate of self-assembly should be faster for MAX1 than for MAX4. This difference in rate should be evident in the rate of storage moduli (rigidity) increase. […] (Tgel=20° C. for both peptides). […]

For `NC(=O)CN1CCN(CC(N)=O)CCN(CC(N)=O)CCN(CC(N)=O)CC1` [DOTAM], the Kd ([1]; read-out: Kd for calcium) is given as 29 nM.

For VKVKVKVK V^DPPT KVKEKVKV-NH2 [MAX5], the “conformation by CD under folding conditions” value [2] was “random coil”.

For “KVKVKVKV K^DPPS VKVKVKVK-NH2 (chain 1 KVKVKVKVK[dP]PS; not fully specified) [MAX4]”, the “temperature at which folding and consequent self-assembly is triggered (Tgel)” value [3] was 20 °C.

For “VKVKVKTK V^DPPT KVKTKVKV-NH2 (not fully specified (C-terminus)) [MAX3]”, the “temperature at which folding and consequent self-assembly is triggered (Tgel)” value [3] was 60 °C and the “reversibility of thermally induced hydrogelation” value [4] was “thermally reversible”.

In the case of -DRKADGYIDFEE-, the “Kd for Ca(II)” value ([1]; linear peptide) is given as “low mM”.

For “VKVKVKVK V^DPPT KVKTKVKV-NH2 (not fully specified (C-terminus)) [MAX2]”, the “temperature above which peptide folds/self-assembles” value ([3]; pH 9 (10 mM NaCl)) was “greater than 45 °C”, the “temperature below which peptide is unfolded” value ([3]; pH 9 (10 mM NaCl)) was “below 40 °C” and the “reversibility of thermally induced hydrogelation” value [4] was “not reversible”.

With “VKVKVKVK V^DPPT KVKCKVKV-NH2 (not fully specified (C-terminus)) [MAX6]” the “ability to fold and self-assemble” value [4] was “folds and self-assembles”.

For “VKVKVKVK VPPT KVKVKVKV-NH2 (VKVKVKVKVPPTKVKVKVKV-NH2) [MAX9]”, the “conformation by CD under folding conditions” value [2] was “only random coil” and the “hydrogelation under folding conditions” value ([4]; 2 wt % solutions) was “failed to undergo hydrogelation”.
